Test results: US20120045393A1 (priority 2009, published 2012)
Non-standard residues stand in square brackets, D forms with d. Primed or numbered codes have the meaning given here. DO3A10CM″ = chelating group at the N-terminus (X in the sequence tables); Bpa = N[C@@H](Cc1ccc(C(=O)c2ccccc2)cc1)C(=O)O; d2Nal = N[C@H](Cc1ccc2ccccc2c1)C(=O)O; 3Pal = N[C@@H](Cc1cccnc1)C(=O)O; DO3A10CM = not defined here; Dnalg1 = not defined here; dAfe4 = not defined here; Thz′ = not defined here; Tha = not defined here; azaGly = NNC(=O)O; Sar = CNCC(=O)O

Biological target: LHRH binding sites on EFO-27 human ovarian cancer cells (human)
Assay: competition with [125I-Tyr8]BRU-2477 on EFO-27 cells

Binder	EC50
DO3A10CM-G[Thz′]HWSH[dR]W[Bpa]P[azaGly]-NH2 (reading uncertain) [BRU-2728]	3150 nM
DO3A10CM-[d2Nal]RWSR[dW]W[Bpa]P[azaGly]-NH2 (reading uncertain) [BRU-3001]	3280 nM
XRXSHXWXPX (DO3A10CM on N-terminus; AA1 Dnal2; AA3 Pal3; AA6 Darg; AA8 Bpa4; AA10 azaGly-NH2) [BRU-3109]	730 nM
XHWSHXWXPX (DO3A10CM on N-terminus; AA1 Sar; AA6 Darg; AA8 Tha; AA10 azaGly-NH2) [BRU-2742]	10000 nM
XHWSHXWXPX (DO3A10CM on N-terminus; AA1 Sar; AA6 Darg; AA8 Bpa(NOH); AA10 azaGly-NH2) [BRU-2907]	1900 nM
XHWSHXWXPX (DO3A10CM on N-terminus; AA1 EtGly; AA6 Darg; AA8 Bpa4; AA10 azaGly-NH2) [BRU-2788]	210 nM
XRWSHXWXPX (DO3A10CM on N-terminus; AA1 Nal2; AA6 Darg; AA8 Bpa4; AA10 azaGly-NH2) [BRU-3051]	620 nM
{DO3A10CM″}-[Sar][His(pime)]WS[Tha][dR]W[Bpa]P[azaGly]-NH2 (reading uncertain) [BRU-2739]	5280 nM
XHWSHXWXPX (DO3A10CM on N-terminus; AA1 Sar; AA6 Darg; AA8 Ing2; AA10 azaGly-NH2) [BRU-2765]	8710 nM
XHWSHXWXPX (DO3A10CM on N-terminus; AA1 Sar; AA6 Darg; AA8 Pal3; AA10 azaGly-NH2) [BRU-2726]	17400 nM
XHWSHXWXPX (DO3A10CM on N-terminus; AA1 Nal2; AA6 Darg; AA8 Bpa4; AA10 azaGly-NH2) [BRU-2809]	3540 nM
XRWXHXWXPX (DO3A10CM on N-terminus; AA1 Dnal2; AA4 Pal4; AA6 Darg; AA8 Bpa4; AA10 azaGly-NH2) [BRU-2957]	840 nM
{DO3A10CM″}-[Sar][His(pime)]WSH[dR]W[Bpa]P[azaGly]-NH2 [BRU-2759]	10000 nM
{DO3A10CM″}-[Sar]HWSH[dR]WYP[azaGly]-NH2 [BRU-2758]	10000 nM
XHWSHXWXPX (DO3A10CM on N-terminus; AA1 Sar; AA6 Darg; AA8 Tyr(OBz); AA10 azaGly-NH2) [BRU-2820]	1570 nM
XHWSHXWXPX (DO3A10CM on N-terminus; AA1 Sar; AA6 Darg; AA8 Aic2; AA10 azaGly-NH2) [BRU-2764]	4310 nM
GXRWSHXWXPX (DO3A10CM-Gly (linker) on N-terminus; AA1 Tic; AA6 Darg; AA8 Bpa4; AA10 azaGly-NH2) [BRU-3052]	550 nM
XXWSHXWXPX (DO3A10CM on N-terminus; AA1 Sar; AA2 4ClPhe; AA6 Darg; AA8 Bpa4; AA10 azaGly-NH2) [BRU-2719]	630 nM

More lines, in order of falling EC50, values ahead:

EC50	Binder
15000 nM	{DO3A10CM″}-[Sar][Tha]WS[Tha][dR]W[Bpa]P[azaGly]-NH2 (reading uncertain) [BRU-2762]
12800 nM	DO3A10CM-[Sar][Tha]WSH[dR]W[Bpa]P[azaGly]-NH2 (reading uncertain) [BRU-2768]
10000 nM	XHWSHXWXPX (DO3A10CM on N-terminus; AA1 Dtyr; AA6 Darg; AA8 Bpa4; AA10 azaGly-NH2) [BRU-2870]
7250 nM	DO3A10CM-[Sar][dAfe4]WSH[dR]W[Bpa]P[azaGly]-NH2 (reading uncertain) [BRU-2815]
3550 nM	XHWSHXWXPX (DO3A10CM on N-terminus; AA1 Sar; AA6 Darg; AA8 Amfe4; AA10 azaGly-NH2) [BRU-2760]
2700 nM	DO3A10CM-G[Dnalg1]HWSH[dR]W[Bpa]P[azaGly]-NH2 (reading uncertain) [BRU-2770]
2000 nM	XRWSHXWXPX (DO3A10CM on N-terminus; AA1 Cafe4; AA6 Darg; AA8 Bpa4; AA10 azaGly-NH2) [BRU-3092]
1700 nM	XRWSHXWXPX (DO3A10CM on N-terminus; AA1 Sar; AA6 Darg; AA8 Bpa4; AA10 azaGly-NH2) [BRU-2817]
1620 nM	DO3A10CM-[Sar][3Pal]WSH[dR]W[Bpa]P[azaGly]-NH2 (reading uncertain) [BRU-2818]
1400 nM	XHWSHXWXPX (DO3A10CM on N-terminus; AA1 Ambz4; AA6 Darg; AA8 Bpa4; AA10 azaGly-NH2) [BRU-2737]
930 nM	XRWSXXWXPX (DO3A10CM on N-terminus; AA1 Dnal2; AA5 Cit; AA6 Darg; AA8 Bpa4; AA10 azaGly-NH2) [BRU-3030]
850 nM	XRXSHXWXPX (DO3A10CM on N-terminus; AA1 Dnal2; AA3 Dtrp; AA6 Darg; AA8 Bpa4; AA10 azaGly-NH2) [BRU-3112]
770 nM	XHWSHXWXPX (DO3A10CM on N-terminus; AA1 Sar; AA6 Darg; AA8 Dtyr(OBz); AA10 azaGly-NH2) [BRU-2819]
